Test results: patent US20250011363A1, “OPTIMIZED SHORTENED PEPTIDE THAT BINDS TO ACETYLCHOLINE RECEPTOR, AND USE THEREOF” (SKINMED CO., LTD., priority 2021, published 2025)

B1: 6mer-2-1028 (peptide)
peptide: KPEHRR
B2: 6mer-2-1042 (peptide)
peptide: KKMFRK
B3: 6mer-2-1044 (peptide)
peptide: KHTDKK
B4: 6mer-2-1037 (peptide)
peptide: KIHWKK
B5: 6mer-2-1018 (peptide)
peptide: RPTKKK
B6: 6mer-2-999 (peptide)
peptide: RATIKR
B7: 6mer-2-1020 (peptide)
peptide: KHDKKR
B8: 6mer-2-1014 (peptide)
peptide: RPPMRR
B9: 6mer-2-1007 (peptide)
peptide: RHTNKK
B10: 6mer-2-1031 (peptide)
peptide: RAWERK
B11: 6mer-2-1001 (peptide)
peptide: RKKFKK
B12: 6mer-2-1019 (peptide)
peptide: RNTWKK
B13: 6mer-2-1025 (peptide)
peptide: RCSHRR
B14: 6mer-2-1034 (peptide)
peptide: KHSWRR
B15: 6mer-2-1004 (peptide)
peptide: RDTHKR
B16: 6mer-2-1029 (peptide)
peptide: KEEFKK
B17: 6mer-2-1011 (peptide)
peptide: RAEFRR
B18: 6mer-2-1035 (peptide)
peptide: RPPVKK
B19: 6mer-2-1040 (peptide)
peptide: KYAWRK
B20: 6mer-2-1041 (peptide)
peptide: RACDKR
B21: 6mer-2-1036 (peptide)
peptide: KAKNKR
B22: 6mer-2-1026 (peptide)
peptide: KENHRK
B23: 6mer-2-1015 (peptide)
peptide: RDEMKR
B24: 6mer-2-1006 (peptide)
peptide: RATMRR
B25: 6mer-2-1030 (peptide)
peptide: RAPFKK
B26: 6mer-2-1032 (peptide)
peptide: KETVKR
B27: 6mer-2-1005 (peptide)
peptide: RFKARR
B28: 6mer-2-1021 (peptide)
peptide: RYTPKR
B29: 6mer-2-1009 (peptide)
peptide: KINPRK
B30: 6mer-2-1022 (peptide)
peptide: KCNPRR
B31: 6mer-2-1013 (peptide)
peptide: KPPDKR
B32: 6mer-2-1045 (peptide)
peptide: RHAHRR
B33: 6mer-2-1003 (peptide)
peptide: KPEWKR
B34: 6mer-2-1038 (peptide)
peptide: KHWERK
B35: 6mer-2-1016 (peptide)
peptide: RNEEKR
B36: 6mer-2-1027 (peptide)
peptide: KTPVKK
B37: 6mer-2-1008 (peptide)
peptide: RAWKKR
B38: 6mer-2-1023 (peptide)
peptide: KAEFKR
B39: 6mer-2-1017 (peptide)
peptide: RAPVRR
B40: 6mer-2-1010 (peptide)
peptide: RANHKK
B41: 6mer-2-1024 (peptide)
peptide: RFHNKR
B42: 6mer-2-1012 (peptide)
peptide: KASAKK
B43: 6mer-2-1002 (peptide)
peptide: RCNDKR
B44: 6mer-2-1000 (peptide)
peptide: KCHDKK
B45: 6mer-2-1033 (peptide)
peptide: KMDEKK
B46: 6mer-2-1039 (peptide)
peptide: RNHFRK
B47: 6mer-2-1043 (peptide)
peptide: RDKGKK
B48: 6mer-2-997 (peptide)
peptide: KISFKK
B49: 6mer-2-970 (peptide)
peptide: KDDVRR
B50: 6mer-2-992 (peptide)
peptide: RMHFRR
B51: 6mer-2-974 (peptide)
peptide: RFDDRR
B52: 6mer-2-984 (peptide)
peptide: KDMWKK
B53: 6mer-2-990 (peptide)
peptide: RKKMKR
B54: 6mer-2-994 (peptide)
peptide: KYCIKK
B55: 6mer-2-996 (peptide)
peptide: RHDARK
B56: 6mer-2-973 (peptide)
peptide: KCPIKK
B57: 6mer-2-987 (peptide)
peptide: RCHPKK
B58: 6mer-2-995 (peptide)
peptide: KFWEKK
B59: 6mer-2-986 (peptide)
peptide: KNWARR
B60: 6mer-2-971 (peptide)
peptide: KEMFRK
B61: 6mer-2-989 (peptide)
peptide: KAHNKR
B62: 6mer-2-998 (peptide)
peptide: KEMWKK
B63: 6mer-2-991 (peptide)
peptide: KCHFRR
B64: 6mer-2-993 (peptide)
peptide: RHDVKK
B65: 6mer-2-983 (peptide)
peptide: RTWHRR
B66: 6mer-2-977 (peptide)
peptide: REMKRK
B67: 6mer-2-988 (peptide)
peptide: KMCEKK
B68: 6mer-2-976 (peptide)
peptide: RTTGKK
B69: 6mer-2-969 (peptide)
peptide: KATHKR
B70: 6mer-2-981 (peptide)
peptide: RCEIRK
B71: 6mer-2-972 (peptide)
peptide: KAMFRR
B72: 6mer-2-980 (peptide)
peptide: KESGKR
B73: 6mer-2-985 (peptide)
peptide: REMNKR
B74: 6mer-2-982 (peptide)
peptide: RMHAKK
B75: 6mer-2-979 (peptide)
peptide: KKAFKK
B76: 6mer-2-978 (peptide)
peptide: KEPHRR
B77: 6mer-2-975 (peptide)
peptide: KKTMKK
B78: 6mer-2-968 (peptide)
peptide: RHWEKK

Target: acetylcholine receptor
Assay: SPR, peptide at 10 uM on immobilized AchR

Going from B1 to B2, the Binding affinity (RU) falls from 41 RU to 36 RU.

First: B3
Second: B4
The Binding affinity (RU) of the first is higher: 41 RU for the first, 26 RU for the second.

First: B5
Second: B6
The Binding affinity (RU) of the first is lower: 24 RU for the first, 31 RU for the second.

Going from B7 to B8, the Binding affinity (RU) rises from 21 RU to 34 RU.

Going from B9 to B10, the Binding affinity (RU) falls from 42 RU to 33 RU.

First: B11
Second: B12
The Binding affinity (RU) of the first is higher: 37 RU for the first, 23 RU for the second.

Compared with B13, B14 is lower in Binding affinity (RU): 39 RU for the first, 38 RU for the second.

First: B15
Second: B16
The Binding affinity (RU) of the first is lower: 38 RU for the first, 40 RU for the second.

First: B17
Second: B18
The Binding affinity (RU) of the first is lower: 22 RU for the first, 39 RU for the second.

Compared with B19, B20 is lower in Binding affinity (RU): 36 RU for the first, 22 RU for the second.

Compared with B21, B22 is higher in Binding affinity (RU): 25 RU for the first, 33 RU for the second.

Compared with B23, B24 is higher in Binding affinity (RU): 29 RU for the first, 30 RU for the second.

Going from B25 to B26, the Binding affinity (RU) rises from 28 RU to 31 RU.

First: B27
Second: B28
The Binding affinity (RU) of the first is lower: 23 RU for the first, 39 RU for the second.

Going from B29 to B30, the Binding affinity (RU) falls from 34 RU to 22 RU.

First: B31
Second: B32
The Binding affinity (RU) of the first is lower: 23 RU for the first, 41 RU for the second.

First: B33
Second: B34
The Binding affinity (RU) of the first is higher: 42 RU for the first, 33 RU for the second.

Going from B35 to B36, the Binding affinity (RU) falls from 41 RU to 32 RU.

Going from B37 to B38, the Binding affinity (RU) falls from 38 RU to 26 RU.

First: B39
Second: B40
The Binding affinity (RU) of the first is higher: 40 RU for the first, 36 RU for the second.

First: B41
Second: B42
The Binding affinity (RU) of the first is higher: 37 RU for the first, 30 RU for the second.

First: B43
Second: B44
The Binding affinity (RU) of the first is higher: 42 RU for the first, 41 RU for the second.

First: B45
Second: B46
The Binding affinity (RU) of the first is higher: 28 RU for the first, 26 RU for the second.

For B47, the Binding affinity (RU) was 40 RU.

Target: acetylcholine receptor
Assay: SPR, receptor immobilised on chip, peptide at 10 uM

Compared with B48, B49 is lower in Binding affinity (RU): 30 RU for the first, 27 RU for the second.

Compared with B50, B51 is higher in Binding affinity (RU): 33 RU for the first, 38 RU for the second.

Going from B52 to B53, the Binding affinity (RU) falls from 43 RU to 41 RU.

Going from B54 to B55, the Binding affinity (RU) falls from 41 RU to 40 RU.

Compared with B56, B57 is lower in Binding affinity (RU): 41 RU for the first, 22 RU for the second.

Compared with B58, B59 is lower in Binding affinity (RU): 38 RU for the first, 27 RU for the second.

Compared with B60, B61 is lower in Binding affinity (RU): 29 RU for the first, 22 RU for the second.

Going from B62 to B63, the Binding affinity (RU) falls from 43 RU to 30 RU.

First: B64
Second: B65
The Binding affinity (RU) of the first is lower: 29 RU for the first, 37 RU for the second.

First: B66
Second: B67
The Binding affinity (RU) of the first is lower: 30 RU for the first, 41 RU for the second.

Going from B68 to B69, the Binding affinity (RU) rises from 26 RU to 33 RU.

Compared with B70, B71 is higher in Binding affinity (RU): 32 RU for the first, 38 RU for the second.

B72 and B73 are the same in Binding affinity (RU): 34 RU for the first, 34 RU for the second.

Going from B74 to B75, the Binding affinity (RU) falls from 38 RU to 22 RU.

Compared with B76, B77 is higher in Binding affinity (RU): 28 RU for the first, 38 RU for the second.

B78 gave a Binding affinity (RU) of 39 RU.
